Measured values from patent publication US20240360224A1 (ORIONIS BIOSCIENCES, published 2024).
Numbering of substitutions follows the chain as printed.

B1: 2LEC 13 (VHH)
VHH: QVQLQESGGGLVQAGASLRLSCAASGSIFSINAMGWYRQAPGKQRELVAAITNQGRTTYADSVKGRFTISRDNAKNTVYLQMDSLEPEDTAIYYCKGFSPTGDYWGQGTQVTVSS
notes: Entry includes C-terminal AAA-HA-His6 (pMECS)
B2: 1LEC 62 (VHH)
VHH: QVQLQESGGGLVQPGGFLSLSCAASGSMHSVNSMAWYRQVPGKQRELVAAITSGGRLAYAPSVNGRFTISRDYAKNTIHLQMNSLEPEDTAVYYCAALNSATTYWGQGTQVTVSS
notes: as for B1
B3: 1LEC 26 (VHH)
VHH: QVQLQESGGGLVQPGGSLRLSCAASGRFFRVNAMGWYRQAPGKQRELVAAITNGGQTAYADSVKGRFTISKESARNTVHLQMSSLKPEDTAVYYCTIWAADYQQYWGQGTQVTVSS
notes: as for B1
B4: 2LEC 60 (VHH)
VHH: QVQLQESGGGLVQPGGSLRLSCAASGRFFRVNAMGWYRQVPGKQRELVAAITNGGQIAYADSVKGRFTISRDSAKNTVYLQMNSLKSEDTDVYYCNAKAAATHLSTVADYWGQGTQVTVSS
notes: as for B1
B5: 3LEC 13 (VHH)
VHH: B4 VHH with V40A, A58V, D91A, T102S, H103Y, L104V
notes: as for B1
B6: 1LEC 91 (VHH)
VHH: QVQLQESGGGLVQPGGSLRLSCAASGFTFDDYAIGWFRQAPGKEHEGVSCISRSDGSTYYDDSVKGRFTISSDNAKNTVYLQMNSLKPEDTAVYYCAAEVPSTYSCSGFREDYKGKGTQVTVSS
notes: as for B1
B7: 1LEC 70 (VHH)
VHH: QVQLQESGGGLVQPGGSLRLSCAASGSIFSINAMGWYRQAPGKQRELVAAITNQGRLTYADSVKGRFTISRDNAKNTVFLQMDSLKPEDTAVYYCNAKWYDPLVIEYYDNWGQGTQVTVSS
notes: as for B1
B8: 2LEC 93 (VHH)
VHH: QVQLQESGGGLVQAGGSLRLSCAASGSIFSINAMGWYRPALGEQRELVAAITTGGRTTYVDSVKGRFSISRDNAKNTVYLQMNSLKPEDTAVYFCKAFTRDEDFWGQGTQVTVSS
notes: as for B1
B9: 2LEC 53 (VHH)
VHH: B8 VHH with F29D, T58A, S68T, N73A, F94S, E102T, F104Y
notes: as for B1
B10: 1LEC 63 (VHH)
VHH: QVQLQESGGGLVQAGGSLRLSCAATGDISSINAMGWHRPARGNERELVAAITNGGRTTYVDSVKGRFTISRDNAKNTVYLQMNSLKPEDTAVYFCKAYTRDEDYWGQGTQVTVSS
notes: as for B1
B11: 1LEC 30 (VHH)
VHH: B8 VHH with F29L, A33S, E43N, T53N, G54D, S68T, F94W, E102K, F104Y
notes: as for B1
B12: 2LEC 55 (VHH)
VHH: QVQLQESGGGLVQTGESLSLSCAVASGSIISINSMGWYRQAPEKQRELVAAITVDGRLAYADSAKHRFTISKESARNTVHLHMSSLKPEDTAVYYCTIWVRDGQQYWGQGTQVTVSS
notes: as for B1
B13: 1LEC 9 (VHH)
VHH: QVQLQESGGGLVQAGGSLRLSCAASGSITSINAMGWYRQAPGKQRELVAAITSGGRLSYADSVKGRFTISRDNAESTVALQMNSLKPEDTAVYSCAAFQSSGIDWGQGTQVTVSS
notes: as for B1
B14: 2LEC 90 (VHH)
VHH: QVQLQESGGGLVQTGGSLRLSCAASGSIFSFNAMGWYRQAPGKQRELVAAITDGGRLTYADSAKGRFTISRENTRNTVHLQMSSLKAEDTADYYCTIWTRDRQQYWGQGTQVTVSS
notes: as for B1
B15: 3LEC 55 (VHH)
VHH: B14 VHH with T14P, R19K, G65N, D92V, R100K
notes: as for B1
B16: 2LEC 26 (VHH)
VHH: B14 VHH with Q13E, F31I, G54Q, T58A, T74A, V78L, D92V, T99D
notes: as for B1
B17: 3LEC 30 (VHH)
VHH: QVQLQESGGGLVQTGGSLRLSCAASGSIFSINSMGWYRQAPGKQRELVAAITSQGRSTYADSAKGRFTISLGNARNTVNLQMSSLKTEDTAVYYCTIWARDRQQYWGQGTQVTVSS
notes: as for B1
B18: 1LEC 88 (VHH)
VHH: QVQLQESGGGLVQPGGSLRLSCAAIGNIASITAMGWYRQAPGKQRELVAAITSASASRTTYADSVKGRFTISRDNAKNTVYLQMNSLQPEDTAVYYCKGFRSGADDYWGQGTQVTVSS
notes: as for B1
B19: 2LEC 6 (VHH)
VHH: QVQLQESGGGWVQPGGSLRLSCAATGSIVSINAIGWYRQAPGKQRELVASITNQGIRNYSTSVMGRFTISRDDVKNTVSLQMNSLKPEDSAVYYCKGFAGWGKEDYWGQGTQVTVSS
notes: as for B1
B20: 3LEC 66 (VHH)
VHH: QVQLQESGGGLVQPGGSLRLSCAASRSFFSFNAMGWYRQAPGKQRELVAAITNGGRIAYGTSVMGRFTISRDNAKNTVYLQMDSLKPEDTAVYYCNAKPAPVYGSTVGDYWGQGTQVTVSS
notes: as for B1
B21: 2LEC 59 (VHH)
VHH: B20 VHH with A24V, S27N, F31I, N73D, Y79D, D83N, K86R, P99A, A100I, G108E
notes: as for B1
B22: 1LEC 28 (VHH)
VHH: QVQLQESGGGLVQSGGSLRLSCAASGSVFSINAWGWYRQAPGKQRELVAAITNQGRIAYAPSVNGRFTISRDSAKNTVYLQMNSLKPEDTAVYYCNAKPTPVYGSTVGDYWGQGTQVTVSS
notes: as for B1
B23: 2LEC 16 (VHH)
VHH: B20 VHH with A23L, F29S, Q44E, T61I, S62A, M64N, D83N, A100T
notes: as for B1
B24: 2LEC 23 (VHH)
VHH: QVQLQESGGGLVQPGGSLRLSCAASGTSFSINGMAWYRQAPGGQRELVGGITSDGSTGYADSVKGRFTVSRDNAKNTVYLQMNRLKPEDTAVYYCGTSTPRGDSYWGQGTQVTVSS
notes: as for B1
B25: 2LEC 48 (VHH)
VHH: B24 VHH with P14A, S28L, G43K, Q44R, V69I, V78A, R84S
notes: as for B1
B26: 1LEC 7 (VHH)
VHH: QVQLQESGGGLVQPGGSLRLSCAASGRISSINSMGWYRQAPGNQRELVAAITNGGAKTYADSVKGRFTISTDNAGNTVYLQMDSLRPEDTAVYYCKAFTRRDDYWGQGTQITVSS
notes: as for B1
B27: 3LEC 57 (VHH)
VHH: B26 VHH with N43K, T71R, N73G, S84N, R101T, D102Y, I111V
notes: as for B1
B28: 2LEC 68 (VHH)
VHH: B26 VHH with G16E, R27S, S29F, S33A, N43K, N53D, R101G, D102N, I111V
notes: as for B1
B29: 3LEC 36 (VHH)
VHH: QVQLQESGGGLVQPGGSLRLSCAASGRIGSINSMGWYRQAPGKQREMVAAITNGGATVYADSVKGRFTISRDNAGNTVDLHMNSLRPEDSAVYYCKAFTRGDDYWGQGTQVTVSS
notes: as for B1
B30: 1LEC 42 (VHH)
VHH: QVQLQESGGGLVQPGGSLRLSCAASGRVFSINAMGWYRQAPGKQRELVAAITNQGATTYADSVKGRFTISRDTAGNTVYLQMNSLRPEDTAVHYCKAFTRTDDYWGQGTQVTVSS
notes: as for B1
B31: 2LEC 38 (VHH)
VHH: B30 VHH with V28I, S30D, Q54G, A56Q, T73N, H93Y, T101S
notes: as for B1
B32: 3LEC 11 (VHH)
VHH: QVQLQESGGGLVQPGGSLRLSCAASGSISSINAMGWYRQAPGKQRELVAAITGQGRTTYADSVKGRFTISRDGAKNTVYLQMNSLKPEDTAVYYCKVFAADGMEYWGKGTQVTVSS
notes: as for B1
B33: 3LEC 69 (VHH)
VHH: QVQLQESGGGLVQPGGSPRLSCAASGRFFRVNAMGWYRQAPGKQRELVAAITNGGQTAYADSVKGRFTISRDSAKNTVYLQMNSLKSEDTAVYYCKVFAADGMEYWGKGTQVTVSS
notes: as for B1
B34: 1LEC 92 (VHH)
VHH: B32 VHH with K43N, G53N, T57V, D101S
notes: as for B1
B35: 1LEC 84 (VHH)
VHH: QVQLQESGGGLVQPGGSLRLSCAASGSIFSIAAMGWYRQAPGKQRELVAAITSGGRRAYADSVKGRFTISRDNDENTVALQMNSLKPEDTDVYYCNAKADHNDYWGQGTQITVSS
notes: as for B1
B36: 2LEC 54 (VHH)
VHH: QVQLQESGGGLAQPGGSLQLSCAASGRAFSTNSMGWYRQASGKQRELVAAITSQGRITLADSVKGRFTISSDNTKNTVFLQMNSLKPEDTAVYYCNAWTTLGTFGGQGTQVTVSS
notes: as for B1

Target: T1, human Clec9A (human, UniProt Q6UXN8 1-241)
T1 construct: Expressed on transfected CHO-K1, HEK293-T and HL116 cells, or native on human dendritic cells; also called hClec9A; C-type lectin domain family 9 member A
Experiment: flow cytometry on HEK293-T cells transfected with human Clec9A; His-tagged VHH at 2 µg/ml, anti-His FITC antibody; single concentration
Method: The binding characteristics of various VHHs (as described in Example 1) were tested by flow cytometry. HEK293-T cells were transfected with a human Clec9A expression plasmid and stained with the His-tagged VHHs at 2 μg/ml, followed by staining with an anti-His Fitc conjugated antibody. Binding was measured by detecting cellular fluorescence via flow cytometry.

T1 sequence (Q6UXN8 whole entry, the tested form may be a part): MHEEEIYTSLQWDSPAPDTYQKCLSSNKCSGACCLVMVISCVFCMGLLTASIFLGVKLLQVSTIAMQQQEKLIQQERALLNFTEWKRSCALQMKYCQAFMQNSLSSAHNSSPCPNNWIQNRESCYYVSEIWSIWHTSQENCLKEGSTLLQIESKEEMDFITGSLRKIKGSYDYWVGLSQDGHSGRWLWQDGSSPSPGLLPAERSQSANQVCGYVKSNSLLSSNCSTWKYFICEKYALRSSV

Row | Binder | binding result
1 | B1 | binds
2 | B2 | binds
3 | B3 | binds
4 | B4 | binds
5 | B5 | binds
6 | B6 | binds
7 | B7 | binds
8 | B8 | binds
9 | B9 | binds
10 | B10 | binds
11 | B11 | binds
12 | B12 | binds
13 | B13 | binds
14 | B14 | binds
15 | B15 | binds
16 | B16 | binds
17 | B17 | binds
18 | B18 | binds

Row | Binder | binding result
19 | B19 | binds
20 | B20 | binds
21 | B21 | binds
22 | B22 | binds
23 | B23 | binds
24 | B24 | binds
25 | B25 | binds
26 | B26 | binds
27 | B27 | binds
28 | B28 | binds
29 | B29 | binds
30 | B30 | binds
31 | B31 | binds
32 | B32 | binds
33 | B33 | binds
34 | B34 | binds
35 | B35 | binds
36 | B36 | binds
